Results reported in paper PMC9606215.

Experiments:
complement C3b [1] = target: complement C3b (UniProt P01024); assay: SPR; C3b amine-coupled to a CM5 chip; CFB as analyte at 1.0-4.0 μM in 10 mM HEPES pH 7.4, 50 mM NaCl, 3 mM MgCl2, 1 mM CFD, 0.005% surfactant P20 (activated C3 convertase C3bBb formation); two state interaction model
complement C3b [2] = target: complement C3b (UniProt P01024); assay: SPR; C3b amine-coupled to a CM5 chip; CFB flowed at 0.125-4.0 μM, 30 μl/min; 10 mM HEPES pH 7.4, 50 mM NaCl, 3 mM MgCl2, 0.005% surfactant P20; without CFD (proenzyme C3bB formation); two state interaction model
complement C3b [3] = target: complement C3b (UniProt P01024); assay: SPR; proenzyme C3bB formation: C3b amine-coupled to a CM5 chip; CFB flowed at 0.125-4.0 uM, 30 ul/min; 10 mM HEPES pH 7.4, 50 mM NaCl, 3 mM MgCl2, 0.005% surfactant P20; without CFD; Biacore
complement C3b [4] = target: complement C3b (UniProt P01024); assay: SPR; activated C3 convertase C3bBb formation: C3b amine-coupled to a CM5 chip; CFB flowed at 1.0-4.0 uM with complement factor D (1 mM [sic] CFD); 10 mM HEPES pH 7.4, 50 mM NaCl, 3 mM MgCl2, 0.005% surfactant P20; Biacore

| Kd (complement C3b [1]) [nM] | Kd (complement C3b [2]) [nM] | Kd (complement C3b [3]) [nM] | koff (complement C3b [3]) [s⁻¹] | kon (complement C3b [3]) [M⁻¹ s⁻¹] | koff (complement C3b [4]) [s⁻¹] | kon (complement C3b [4]) [M⁻¹ s⁻¹] | Substance |
| --- | --- | --- | --- | --- | --- | --- | --- |
| 77.3 | 610 | 608 | 0.0088 | 14500 | 0.00247 | 32000 | complement factor B, wild type (32R) (from UniProt P00751 26-764) (natural protein) |
| 318 | 2250 |  | 0.015 | 6700 | 0.00236 | 7420 | complement factor B, R32W variant (32W) (from UniProt P00751 26-764) (natural protein) |
